Data: PMC7591920, “A protein tertiary structure mimetic modulator of the Hippo signalling pathway” (Nature Communications, 2020)

T1: mouse TEAD4(210–427), as purified (SPR) (mouse), Q62296
T1 chain: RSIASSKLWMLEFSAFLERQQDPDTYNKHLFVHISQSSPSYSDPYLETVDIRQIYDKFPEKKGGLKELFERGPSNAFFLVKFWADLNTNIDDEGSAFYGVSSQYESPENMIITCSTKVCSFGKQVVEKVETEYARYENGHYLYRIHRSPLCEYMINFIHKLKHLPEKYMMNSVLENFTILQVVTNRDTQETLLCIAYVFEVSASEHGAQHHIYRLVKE


How the values were obtained:
Assay in all cases: SPR; GST-hTEAD1 and mTEAD4 covalently tethered (NHS/EDC) on CM5 chips, 2000–3000 RU; peptides as analytes, threefold dilutions, typically 30 µM top concentration; 10 mM HEPES, 150 mM NaCl, 0.05% Tween-20, pH 7.4, 0.3% DMSO, 20 °C; steady-state fit, 1:1 model
[1] = biological target: GST-hTEAD1(209–426) (human), P28347
[2] = biological target: T1, mouse TEAD4(210–427), as purified (SPR) …
[3] = biological target: GST-hTEAD1(209–426) (human) (UniProt P28347)

Binder	Kd [1] [µM]	Kd [2] [µM]	Kd [3] [µM]
SVDDHFAKALG (modifications not checked) [isolated helix peptide 5 derived from the VGL4 two-helix motif 4, Q80V24 203-256]	> 100	> 100	–
VGL4(203–256), full-length VGL4-derived TEAD binding sequence (peptide 1) (peptide) peptide: DPVVEEHFRRSLGKNYKEPEPAPNSVSITGSVDDHFAKALGDTWLQIKAAKDSA	–	–	1.4
KEPEPAPNSVSITG (modifications not checked) [VGL4 intervening extended stretch peptide (peptide 3), Q80V24 203-256]	> 100	> 100	–
DTWLQIKAA (modifications not checked) [isolated helix peptide 6 derived from the VGL4 two-helix motif 4, Q80V24 203-256]	> 100	> 100	–
SVDDHFAKALGDTWLQIKAA (modifications not checked) [VGL4 C-terminal two-helix motif peptide (peptide 4, helices α2/α3), Q80V24 203-256]	4.3	3.1	–
DPVVEEHFRRSLGKNY (modifications not checked) [VGL4 N-terminal α-helix peptide (peptide 2, helix α1), Q80V24 203-256]	19.4	21.8	–
